In patent publication US20170066831A1 (Janssen / Centocor, published 2017):
Where a chain is given by its changes, count along the chain named. Names may count otherwise.

T1: mouse ST2L extracellular domain (mouse, UniProt P14719 28-326)
T1 construct: also called mouse ST2L-ECD; muST2L-ECD
T1 sequence: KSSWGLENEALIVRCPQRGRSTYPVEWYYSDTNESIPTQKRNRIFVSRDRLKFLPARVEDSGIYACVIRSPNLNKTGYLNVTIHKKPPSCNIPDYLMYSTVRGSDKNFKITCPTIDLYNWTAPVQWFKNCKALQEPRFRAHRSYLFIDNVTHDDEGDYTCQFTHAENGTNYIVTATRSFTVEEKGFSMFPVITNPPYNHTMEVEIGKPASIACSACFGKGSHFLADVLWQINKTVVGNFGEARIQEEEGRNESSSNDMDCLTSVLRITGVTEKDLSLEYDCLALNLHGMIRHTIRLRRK

T2: human ST2L extracellular domain with C-terminal His6 tag (human, UniProt Q01638 19-328)
T2 construct: also called huST2L-ECD; ST2L-ECD
T2 sequence: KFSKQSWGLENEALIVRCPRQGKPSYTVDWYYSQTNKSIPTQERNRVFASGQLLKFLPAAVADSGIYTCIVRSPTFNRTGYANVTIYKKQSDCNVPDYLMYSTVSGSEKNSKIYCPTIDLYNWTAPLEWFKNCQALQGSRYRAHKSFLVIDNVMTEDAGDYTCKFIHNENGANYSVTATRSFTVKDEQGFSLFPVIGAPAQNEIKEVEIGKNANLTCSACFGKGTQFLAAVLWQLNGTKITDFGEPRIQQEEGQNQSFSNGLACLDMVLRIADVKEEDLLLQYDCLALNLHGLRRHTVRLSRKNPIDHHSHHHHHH

T3: cynomolgus (Macaca fascicularis) ST2L extracellular domain with C-terminal His6 tag (Macaca fascicularis (cynomolgus), UniProt Q01638 19-321 (human entry))
T3 construct: also called cyno ST2L-ECD; cynoST2L-ECD
T3 chain: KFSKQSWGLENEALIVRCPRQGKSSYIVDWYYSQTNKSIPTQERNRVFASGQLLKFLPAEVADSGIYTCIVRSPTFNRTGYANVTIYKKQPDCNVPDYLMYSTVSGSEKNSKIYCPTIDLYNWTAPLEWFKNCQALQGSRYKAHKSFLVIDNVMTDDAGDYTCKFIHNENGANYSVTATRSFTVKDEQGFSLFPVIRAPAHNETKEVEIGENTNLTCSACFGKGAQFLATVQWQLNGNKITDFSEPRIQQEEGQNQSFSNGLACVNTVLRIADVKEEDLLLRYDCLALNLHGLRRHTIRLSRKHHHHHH

T4: human ST2L, full length, on cells (human, UniProt Q01638 19-556)
T4 sequence: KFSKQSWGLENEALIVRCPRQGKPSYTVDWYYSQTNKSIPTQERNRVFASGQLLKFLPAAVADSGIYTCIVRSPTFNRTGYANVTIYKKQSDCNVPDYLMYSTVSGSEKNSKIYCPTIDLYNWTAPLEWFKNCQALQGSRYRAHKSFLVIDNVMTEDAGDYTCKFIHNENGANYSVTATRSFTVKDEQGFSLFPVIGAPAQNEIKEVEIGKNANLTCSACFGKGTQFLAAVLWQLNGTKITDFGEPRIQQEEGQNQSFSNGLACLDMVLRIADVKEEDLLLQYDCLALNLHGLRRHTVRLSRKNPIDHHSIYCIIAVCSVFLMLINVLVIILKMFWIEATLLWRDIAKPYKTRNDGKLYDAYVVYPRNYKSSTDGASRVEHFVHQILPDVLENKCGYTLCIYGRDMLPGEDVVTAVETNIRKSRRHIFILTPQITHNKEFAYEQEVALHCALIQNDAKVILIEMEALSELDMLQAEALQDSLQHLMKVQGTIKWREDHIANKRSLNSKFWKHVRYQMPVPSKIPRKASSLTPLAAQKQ

B1: ST2M48 (antibody, V domains shown)
VH: EVQLVQSGAEVKKPGESLKISCKGSGYSFTSYWIGWVRQMPGKGLEWMGIIYPGDSYTRYSPSFQGQVTISADKSISTAYLQWSSLKASDTAMYYCARLSGRFDYWGQGTLVTVSS
VL: EIVLTQSPATLSLSPGERATLSCRASQSVRDALAWYQQKPGQAPRLLIYFASNRATGIPARFSGSGSGTDFTLTISSLEPEDFAVYYCQQFNTWPITFGQGTKVEIK
notes: Phage-derived Fab converted to IgG
B2: ST2M49 (antibody, V domains shown)
VH: B1 VH with L99I, S100G, R102M
VL: B1 VL with R30A, D31N, F50K, F91Y, N92Y, T93G
notes: as for B1
B3: ST2M51 (antibody, V domains shown)
VH: QVQLVQSGAEVKKPGSSVKVSCKASGGTFSSYAISWVRQAPGQGLEWMGGIIPIFGTANYAQKFQGRVTITADESTSTAYMELSSLRSEDTAVYYCARDTPQLDYWGQGTLVTVSS
VL: not shown
notes: as for B1
B4: STLM15 (antibody, human IgG2, V domains shown)
VH: EVQLQESGPGLVKPSQSLSLTCTVTGFSITSDYAWNWIRQFPGSKLEWMGFISYSGDTSFNPSLKSRISVTRDTSKNQFFLQLNSVTTEDTATYYCASYDGYSFDYWGQGTTLTVSS
VL: DIVLTQSPASLAISLGQRATISCRASKSVSTSGSSYMFWYQQKPGQPPKLLIYLASNLESGVPARFSGSGSGTDFTLNIHPVEEEDAAAYYCQHSREIPYTFGGGTKLEIK
notes: Mouse hybridoma C2244 cloned into human IgG2 background (STLM15); also called C2244
B5: STLM62 (antibody, human IgG2, V domains shown)
VH: EVQLQQSVAELVRPGASVKLSCTASAFNIKDDYMHWVKQRPEQGLEWIGRIDPAIGNTEYAPKFQDKATMTADTSSNTAYLQLSSLTSEDTAVYYCALGDFYAMDYWGQGTSVTVSS
VL: ETTVTQSPASLSVATGEKVTIRCITNTDIDDVIHWYQQKPGEPPKLLISEGNTLRPGVPSRFSSSGYGTDFVFTIENTLSEDVADYYCLQSDNMLTFGAGTKLELK
notes: Mouse hybridoma C2494 cloned into human IgG2 background (STLM62); also called C2494
B6: C2494 Fab (Fab, V domains shown)
VH: B5 VH
VL: B5 VL
B7: C2494 Fab with D101aA (Chothia) substitution in VH (Fab, V domains shown)
VH: B5 VH with D105A
VL: B5 VL
B8: STLM189 (antibody, V domains shown)
VH: QVQLVQSGAEVKKPGASVKVSCKVSAFNIKDDYMHWVRQAPGKGLEWMGRIDPAIGNTEYAPKFQDRVTMTEDTSTDTAYMELSSLRSEDTAVYYCATGDFYAMDYWGQGTLVTVSS
VL: EIVMTQSPATLSVSPGERATLSCITNTDIDDVIHWYQQKPGQAPRLLIYEGNTLRPGIPARFSGSGSGTEFTLTISSLQSEDFAVYYCLQSDNMLTFGQGTKLEIK
notes: C2494 HFA mAb: VH STLH195 + VL STLL278 (L2)
B9: C2521 (antibody, V domains shown)
VH: QIQLQQSGPELVRPGTSVKISCKASGYTFLTYWMNWVKQRPGQGLEWIGQIFPASGSTYYNEMFKDKATLTVDTSSSTAYMQLSSLTSEDTAVYFCARSENIYYINFQYYFAYWGQGTTLTVSS
VL: ILLTQSPAILSVSPGERVSFSCRASQNIGTRMHWYQQRTNGSPRLLIKYASESISGIPSRFSGSGSGTDFTLTISSVESEDIADYYCQQSNTWPFTFGSGTKLEIK
notes: Mouse hybridoma antibody; also called C2521A

Columns and labels:
[1] = molecular target: T1, mouse ST2L extracellular domain; assay: domain binding assay
Experimental: Antibody binding to ST2L domain I, II and III was determined using standard capture ELISA assay using electrochemiluminescent detection format (Meso-Scale Discovery (MSD) technology). 10 μg/mL of each antibody was coated onto each well of an MSD HighBind plate (5 μL/well) for 2 hr at room temperature. […] The plate was covered with aluminum foil and incubated for 1 hr at room temperature with gentle shaking. The plate was then washed 3 times with HEPES wash buffer. MSD read buffer (150 μl) was added to each well, and the plate was then read using an MSD Sector Imager 6000.

[2] = molecular target: T2, human ST2L extracellular domain with …; assay: SPR, mAb captured, ST2L-ECD in solution
[3] = molecular target: T3, cynomolgus (Macaca fascicularis) ST2L …; assay: SPR, mAb captured, ST2L-ECD in solution
[4] = molecular target: T2, human ST2L extracellular domain with …; assay: MSD competition on coated ST2L-ECD; 30 nM sulfo-tag labeled C2244 Fab displaced by unlabeled competitor
Experimental: Competition binding assays were performed to evaluate different binding epitope groups for anti-ST2L mAbs. 5 μl (10 μg/ml) of ST2L-ECD protein was coated on MSD HighBind plate (Meso Scale Discovery, Gaithersburg, Md.) per well for 2 hr at room temperature. One-hundred and fifty microliters of 5% MSD Blocker A buffer (Meso Scale Discovery, Gaithersburg, Md.) was added to each well and incubated for 2 hr at room temperature. Plates were washed three times with 0.1 M HEPES buffer, pH 7.4, followed by the addition of the mixture of the MSD fluorescence dye (sulfo tag, NHS ester) labeled individual anti-ST2L antibody with different competitors. Labeled antibody, 10 or 30 nM, was incubated with increasing concentrations of competitor antibodies, from 1 nM to 2 or 5 μM, and then added to the designated wells in a volume of 25 μL mixture. After 2-hour incubation with gentle shaking at room temperature, plates were washed 3 times with 0.1M HEPES buffer (pH 7.4). MSD Read Buffer T was diluted with distilled water (4-fold) and dispensed at a volume of 150 μL/well and analyzed with a SECTOR Imager 6000.

[5] = molecular target: T4, human ST2L, full length, on cells; assay: cell-based or functional assay
[6] = molecular target: T2, human ST2L extracellular domain with …; assay: ProteOn SPR, mAb captured, ST2L-ECD in solution
Experimental: (§1) The affinities were analyzed by ProteOn. The experiments were performed at 25° C. using ProteOn's PBS-T-E buffer (PBS, 0.005% P20 and 3 mM EDTA) as running buffer. […] Mab capture was followed by injection of ST2L-ECD from 0.024-15 nM (5-fold dilutions) for 4 min (200 μL at 50 μL/min). The dissociation was monitored for 30 minutes for all reaction. Regeneration was performed using two 15 sec pulses of 10 mM glycine pH1.5. The data was fitted to a 1:1 with baseline drift model.
(§2) Association rates for the samples are fast, the langmuir with mass transfer model was used for curve fitting and estimation of Affinity. All of the samples had faster off rates than the parental clone and control Mab. The difference in off rate was the primary contributor to the lower affinity of the HFA variants when compared to the parent antibody.

[7] = molecular target: T3, cynomolgus (Macaca fascicularis) ST2L …; assay: ProteOn SPR, mAb captured, ST2L-ECD in solution
Experimental: as §1, §2

[8] = molecular target: T2, human ST2L extracellular domain with …; assay: RLB ELISA: biotinylated IL-33 on coated huST2L-ECD, antibody titrated; tested as a hybridoma
[9] = molecular target: T2, human ST2L extracellular domain with …; assay: Fab binding to ST2L, method not detailed; parent C2494 Fab, without the D101aA substitution
[10] = molecular target: T2, human ST2L extracellular domain with …; assay: Fab binding to ST2L, method not detailed
[11] = molecular target: T2, human ST2L extracellular domain with …; assay: assayed for binding to human ST2L, method not detailed

Binder	binding result [1]	Kd [2] [nM]	koff [2] [s⁻¹]	kon [2] [M⁻¹ s⁻¹]	Kd [3] [nM]	koff [3] [s⁻¹]	kon [3] [M⁻¹ s⁻¹]	also measured
B1	binds	0.056	7.33e-05	1.32e+06	0.257	0.00265	1.03e+07	
B2	binds	0.101	0.000161	1.59e+06	0.266	0.0124	4.66e+07	
B3	binds	0.038	4.87e-05	1.29e+06	0.076	0.00336	4.42e+07	
B4		0.042	4.25e-05	1.02e+06	0.011	5.3e-05	4.81e+06	IC50 (read off the curve) [4]: ~90 nM
B5		0.028	0.000119	4.26e+06	0.012	0.000539	4.51e+07	RGA IC50 [5]: 0.11 µg/mL; Kd [6]: 0.00867 nM; koff [6]: 0.000159 s⁻¹; kon [6]: 1.84e+07 M⁻¹ s⁻¹; Kd [7]: 0.0123 nM; koff [7]: 0.000457 s⁻¹; kon [7]: 3.84e+07 M⁻¹ s⁻¹; IC50 [8]: 0.7 µg/mL; IC50 (read off the curve) [4]: ~100 nM
B6								koff [9]: 0.000143 s⁻¹
B7								fold decrease of koff against C2494 [10]: ~4 fold
B8								binding result [11]: binds
B9		0.079	4.9e-05	618000	3.71	0.00166	447000	
